The values below come from paper PMC5027287, “Real-time observation of DNA recognition and rejection by the RNA-guided endonuclease Cas9”.

Data set [1] concerns the target T1, Cas9 (SpCas9) (Streptococcus pyogenes, UniProt Q99ZW2 1-1368). Kind of data set: smFRET; 20 nM Cas9-RNA; koff <0.006 s-1, lifetime >3 min (photobleaching limit); Immobilized biotin/Cy3 DNA, 20 nM Cas9-RNA (Cy5 crRNA), 0.1 s frames; imaging buffer, pH and temperature not in the material; kon ~6e6 M-1 s-1. As to conditions: protein: recombinant, tags: His10-MBP removed by TEV, label: Cy3 (DNA), biotin (DNA), DNA duplex 1:2, 5' overhang 2 nt on strand 1, crRNA 3 : tracrRNA 4, guide pairs strand 2.

Data set [2] deals with T1, Cas9 (SpCas9). Kind of data set: smFRET; 20 nM; bound fraction as cognate; Immobilized biotin/Cy3 DNA, 20 nM Cas9-RNA (Cy5 crRNA), 0.1 s frames; imaging buffer, pH and temperature not in the material; kon ~6e6 M-1 s-1. The following applies: protein: recombinant, tags: His10-MBP removed by TEV, label: Cy3, biotin, as N1.
Data set [3] has as its target T1, Cas9 (SpCas9). Kind of data set: smFRET; 20 nM; bound fraction as cognate; bound lifetime ~16 s; Immobilized biotin/Cy3 DNA, 20 nM Cas9-RNA (Cy5 crRNA), 0.1 s frames; imaging buffer, pH and temperature not in the material; kon ~6e6 M-1 s-1. As to conditions: protein: recombinant, tags: His10-MBP removed by TEV, label: Cy3, biotin, as N1.

T1 sequence (Q99ZW2 whole entry): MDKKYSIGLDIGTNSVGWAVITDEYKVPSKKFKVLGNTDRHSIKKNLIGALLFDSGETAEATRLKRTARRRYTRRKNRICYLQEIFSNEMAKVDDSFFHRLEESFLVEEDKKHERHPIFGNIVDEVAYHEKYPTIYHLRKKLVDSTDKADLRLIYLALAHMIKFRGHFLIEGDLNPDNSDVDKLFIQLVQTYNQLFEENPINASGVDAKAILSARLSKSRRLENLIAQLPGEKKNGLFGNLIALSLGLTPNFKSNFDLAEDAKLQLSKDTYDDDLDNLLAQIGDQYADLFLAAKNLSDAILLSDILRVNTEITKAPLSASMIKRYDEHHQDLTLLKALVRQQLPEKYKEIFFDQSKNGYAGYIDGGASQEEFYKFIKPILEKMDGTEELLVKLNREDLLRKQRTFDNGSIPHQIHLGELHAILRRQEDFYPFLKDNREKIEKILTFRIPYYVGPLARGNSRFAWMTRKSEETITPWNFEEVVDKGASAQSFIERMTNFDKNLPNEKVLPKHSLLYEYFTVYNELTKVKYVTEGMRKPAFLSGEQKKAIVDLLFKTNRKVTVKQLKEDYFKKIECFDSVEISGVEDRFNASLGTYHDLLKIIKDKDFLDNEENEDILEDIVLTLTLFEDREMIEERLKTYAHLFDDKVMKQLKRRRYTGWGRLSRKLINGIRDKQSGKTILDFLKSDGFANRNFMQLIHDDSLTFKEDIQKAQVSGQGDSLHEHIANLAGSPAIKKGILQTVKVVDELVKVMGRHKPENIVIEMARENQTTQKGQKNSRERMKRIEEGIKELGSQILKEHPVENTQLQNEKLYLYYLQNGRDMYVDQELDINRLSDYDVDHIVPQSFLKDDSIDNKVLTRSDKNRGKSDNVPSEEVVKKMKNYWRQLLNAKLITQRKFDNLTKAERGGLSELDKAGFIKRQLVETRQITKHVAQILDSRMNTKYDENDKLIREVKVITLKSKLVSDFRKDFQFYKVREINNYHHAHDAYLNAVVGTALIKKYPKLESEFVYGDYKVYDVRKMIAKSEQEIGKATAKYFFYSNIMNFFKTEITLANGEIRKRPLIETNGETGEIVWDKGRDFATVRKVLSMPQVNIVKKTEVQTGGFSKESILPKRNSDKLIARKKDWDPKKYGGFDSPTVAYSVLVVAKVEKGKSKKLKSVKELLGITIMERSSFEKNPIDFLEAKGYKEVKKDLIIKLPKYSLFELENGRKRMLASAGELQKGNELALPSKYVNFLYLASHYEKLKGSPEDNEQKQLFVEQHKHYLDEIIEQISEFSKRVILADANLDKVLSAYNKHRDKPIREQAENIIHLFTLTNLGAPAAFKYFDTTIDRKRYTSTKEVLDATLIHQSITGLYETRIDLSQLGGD

B1: Cognate DNA + guide RNA (mixed)
DNA 1: AACGCAACGTCGTCAGCTGTCTGCACAGCAGAAATCTCTGCTGACGCATAAAGATGAGACGCTGGAGTACAAACGTCAGCTTGCT
DNA 2: AGCAAGCTGACGTTTGTACTCCAGCGTCTCATCTTTATGCGTCAGCAGAGATTTCTGCTGTGCAGACAGCTGACGACGTTGCG
RNA 1: GACGCAUAAAGAUGAGACGCGUUUUAGAGCUAUGCUGUUUUG
RNA 2: GGACAGCAUAGCAAGUUAAAAUAAGGCUAGUCCGUUAUCAACUUGAAAAAGUGGCACCGAGUCGGUGCUUUUU
As for B1, the binding result in the data set with Cas9 (SpCas9) [1] is “binds”.

B2: 12-20mm (mixed)
DNA 1: AACGCAACGTCGTCAGCTGTCTGCACAGCAGAAATCTCTGCTCTGCGTATTAGATGAGACGCTGGAGTACAAACGTCAGCTTGCT
DNA 2: AGCAAGCTGACGTTTGTACTCCAGCGTCTCATCTAATACGCAGAGCAGAGATTTCTGCTGTGCAGACAGCTGACGACGTTGCG
RNA 1: GACGCAUAAAGAUGAGACGCGUUUUAGAGCUAUGCUGUUUUG
RNA 2: GGACAGCAUAGCAAGUUAAAAUAAGGCUAGUCCGUUAUCAACUUGAAAAAGUGGCACCGAGUCGGUGCUUUUU
Consider B2, for which the binding result with Cas9 (SpCas9) [2] is “binds”.

B3: 9-20mm (mixed)
DNA 1: AACGCAACGTCGTCAGCTGTCTGCACAGCAGAAATCTCTGCTCTGCGTATTTCTTGAGACGCTGGAGTACAAACGTCAGCTTGCT
DNA 2: AGCAAGCTGACGTTTGTACTCCAGCGTCTCAAGAAATACGCAGAGCAGAGATTTCTGCTGTGCAGACAGCTGACGACGTTGCG
RNA 1: GACGCAUAAAGAUGAGACGCGUUUUAGAGCUAUGCUGUUUUG
RNA 2: GGACAGCAUAGCAAGUUAAAAUAAGGCUAGUCCGUUAUCAACUUGAAAAAGUGGCACCGAGUCGGUGCUUUUU
In the case of B3, the binding result with Cas9 (SpCas9) [3] was “binds”.

B4: 10-20mm (mixed)
DNA 1: AACGCAACGTCGTCAGCTGTCTGCACAGCAGAAATCTCTGCTCTGCGTATTTCATGAGACGCTGGAGTACAAACGTCAGCTTGCT
DNA 2: AGCAAGCTGACGTTTGTACTCCAGCGTCTCATGAAATACGCAGAGCAGAGATTTCTGCTGTGCAGACAGCTGACGACGTTGCG
RNA 1: GACGCAUAAAGAUGAGACGCGUUUUAGAGCUAUGCUGUUUUG
RNA 2: GGACAGCAUAGCAAGUUAAAAUAAGGCUAGUCCGUUAUCAACUUGAAAAAGUGGCACCGAGUCGGUGCUUUUU
Turning to B4, in the data set with Cas9 (SpCas9) [2], the binding result is reported as “binds”.

B5: 11-20mm (mixed)
DNA 1: AACGCAACGTCGTCAGCTGTCTGCACAGCAGAAATCTCTGCTCTGCGTATTTGATGAGACGCTGGAGTACAAACGTCAGCTTGCT
DNA 2: AGCAAGCTGACGTTTGTACTCCAGCGTCTCATCAAATACGCAGAGCAGAGATTTCTGCTGTGCAGACAGCTGACGACGTTGCG
RNA 1: GACGCAUAAAGAUGAGACGCGUUUUAGAGCUAUGCUGUUUUG
RNA 2: GGACAGCAUAGCAAGUUAAAAUAAGGCUAGUCCGUUAUCAACUUGAAAAAGUGGCACCGAGUCGGUGCUUUUU
Turning to B5, the binding result with Cas9 (SpCas9) [2] is “binds”.

B6: 13-20mm (mixed)
DNA 1: AACGCAACGTCGTCAGCTGTCTGCACAGCAGAAATCTCTGCTCTGCGTATAAGATGAGACGCTGGAGTACAAACGTCAGCTTGCT
DNA 2: AGCAAGCTGACGTTTGTACTCCAGCGTCTCATCTTATACGCAGAGCAGAGATTTCTGCTGTGCAGACAGCTGACGACGTTGCG
RNA 1: GACGCAUAAAGAUGAGACGCGUUUUAGAGCUAUGCUGUUUUG
RNA 2: GGACAGCAUAGCAAGUUAAAAUAAGGCUAGUCCGUUAUCAACUUGAAAAAGUGGCACCGAGUCGGUGCUUUUU
Take B6: the binding result in the data set with Cas9 (SpCas9) [2] is reported as “binds”.

B7: 17-20mm (mixed)
DNA 1: AACGCAACGTCGTCAGCTGTCTGCACAGCAGAAATCTCTGCTCTGCCATAAAGATGAGACGCTGGAGTACAAACGTCAGCTTGCT
DNA 2: AGCAAGCTGACGTTTGTACTCCAGCGTCTCATCTTTATGGCAGAGCAGAGATTTCTGCTGTGCAGACAGCTGACGACGTTGCG
RNA 1: GACGCAUAAAGAUGAGACGCGUUUUAGAGCUAUGCUGUUUUG
RNA 2: GGACAGCAUAGCAAGUUAAAAUAAGGCUAGUCCGUUAUCAACUUGAAAAAGUGGCACCGAGUCGGUGCUUUUU
As for B7, the binding result with Cas9 (SpCas9) [2] is “binds”.
